Laboratory results published in patent EP1602931A1, “SR-A antagonists” (Universiteit Leiden, priority 2004, dated 2005).
Read-outs that look alike come from different tables or passages of the source. No end group written: not given here.

T1: immobilized, biotinylated, synthetic, truncated SR-AI (Bos taurus, UniProt P21758)
T1 sequence (P21758 1-453): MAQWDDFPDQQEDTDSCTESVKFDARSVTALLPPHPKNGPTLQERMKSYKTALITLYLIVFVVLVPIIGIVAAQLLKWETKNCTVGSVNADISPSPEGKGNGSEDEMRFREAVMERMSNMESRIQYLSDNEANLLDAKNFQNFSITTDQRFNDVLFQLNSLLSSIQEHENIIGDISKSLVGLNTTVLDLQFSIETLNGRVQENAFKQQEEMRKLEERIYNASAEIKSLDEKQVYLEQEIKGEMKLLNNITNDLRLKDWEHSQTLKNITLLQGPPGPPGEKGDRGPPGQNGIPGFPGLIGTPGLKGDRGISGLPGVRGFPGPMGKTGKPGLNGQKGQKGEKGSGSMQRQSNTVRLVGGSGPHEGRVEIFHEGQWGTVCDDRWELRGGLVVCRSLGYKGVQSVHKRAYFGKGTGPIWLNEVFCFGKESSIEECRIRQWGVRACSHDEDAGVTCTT

T2: synthetic biotinylated bovine SR-AI (truncated, comprising the ligand binding pocket) (Bos taurus, UniProt P21758)
T2 sequence (P21758 272-343): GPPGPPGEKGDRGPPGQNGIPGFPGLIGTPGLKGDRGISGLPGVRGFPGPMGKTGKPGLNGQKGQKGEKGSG


Columns and labels:
[1] = molecular target: T1, immobilized, biotinylated, synthetic, truncated SR-AI; assay: Competition of selected phage pool binding to immobilized synthetic SR-AI; set-up: species or system bovine
From the text: (§1) All peptides were synthesized on an automated peptide synthesizer (9050 Millipore, MA) using standard Fmoc solid-phase peptide synthesis. Crude peptides were purified on a preparative C8 RP-HPLC column (Altech, Deerfield, IL) using a JASCO PU-980 (Tokyo, Japan). Purified peptides were further characterized by LC-MS in Division of Analytical Biosciences, Leiden University. The purity of the peptide, as checked by MALDI-TOF mass spectrometry and RP-HPLC, was at least 70%. Lyophilized peptides were stored at -20°C under nitrogen until further use. Synthetic biotinylated bovine SR-AI was synthesized, purified and characterised as described by Suzuki et al. (Suzuki et al., 1999).
In analogy to the phage selection procedure, 10 µg/ml of streptavidin in coating buffer was incubated overnight at 4°C in a high-binding 96-well plate at 100 µl/well. Wells were washed 3x with assay buffer and incubated for 1 h at 37°C with blocking buffer. Next, wells were incubated for 2h at 37°C with 125 nM biotininylated SR-AI binding peptide (100 µl/well), washed 3x with binding buffer, after which the SR-AI ligands or synthetic SR-AI binding peptides (7, 9, 11, 13, 15 a. a.) were added and the solution (100 µl) was left to incubate for 2h at RT with the enriched phage pool (round 7) at 10^8 cfu. Wells were washed 10x with binding buffer, binding phage were eluted by incubation for 5 min at RT with 100 µl elution buffer, and neutralized with 50 µl neutralization buffer (1M Tris-HCI, pH 8.5). Residual phage binding was calculated from the output ratio.

[2] = molecular target: T2, synthetic biotinylated bovine SR-AI (truncated, comprising the ligand binding pocket); assay: Competition of enriched phage pool binding to immobilized biotinylated synthetic SR-AI; conditions: displacement of enriched phage pool (round 7, 10^8 cfu) from streptavidin-immobilized biotinylated SR-AI peptide; 0-300 µm peptide; 2h at RT; calculated from displacement curves
From the text: as §1
10 µg/ml of streptavidin in coating buffer (50 mM NaHC03, pH 9.6) was incubated overnight at 4°C in a high binding 96 well plate (Costar, Coming, UK) at 100 µl/well. Subsequently, wells were washed with assay buffer (20 mM HEPES, 150 mM NaCl, 1mM CaCl2, pH 7.4) and incubated for 1 hour at 37°C with blocking buffer (3% BSA in assay buffer). […]
In analogy to the phage selection procedure, 10 µg/ml of streptavidin in coating buffer was incubated overnight at 4°C in a high-binding 96-well plate at 100 µl/well. […] Residual phage binding was calculated from the output ratio.

[3] = molecular target: Synthetic biotinylated bovine SR-AI (synthetic, truncated SR-AI comprising the ligand binding pocket) (bovine) (UniProt P21758); assay: competition of selective phage pool binding to immobilized biotinylated SR-AI by suc-HSA
[4] = molecular target: Synthetic biotinylated bovine SR-AI (synthetic, truncated SR-AI comprising the ligand binding pocket) (bovine) (UniProt P21758); assay: competition of enriched phage pool binding to immobilized biotinylated SR-AI; IC50 against that of poly I
[5] = molecular target: Synthetic biotinylated bovine SR-AI (synthetic, truncated SR-AI comprising the ligand binding pocket) (bovine) (UniProt P21758); assay: competition of enriched phage pool binding to immobilized biotinylated SR-AI peptide by synthetic peptide
[6] = molecular target: Synthetic biotinylated bovine SR-AI (synthetic, truncated SR-AI comprising the ligand binding pocket) (bovine) (UniProt P21758); assay: as above; remark: listed apart in the source
[7] = synthetic peptides (0-300 µM) competing with binding of enriched phage pool (round 7) to biotinylated SR-AI peptide, calculated from displacement curves, three independent experiments

Row | Molecule | IC50 [1, 7] [µM] | IC50 [6] [µM] | also measured
1 | LERFLRCWSDAPA [LERFLRCWSDAPA] | 72.3 | – | –
2 | LSLERFLRCWSDAPA [PP1, LSLERFLRCWSDAPA] | 29.1 | – | IC50 [1]: 28.3 µM
3 | LSLERFLRCWSDAPA [PP1] | – | – | IC50 [2]: 29 µM
4 | Succinylated human serum albumin (from UniProt P02768 25-609) (ligand) | – | – | IC50 [3]: 66 µg/mL
5 | LSLERFLRCWSDAPA [PP1 (…), synthetic full-length peptide] | – | – | fold less potent than poly I [4]: 5 fold; IC50 [5]: 50 µg/mL
6 | CWSDAPA [PP1-7 (CWSDAPA)] | – | 217 | –

More lines, main results first:

Row | IC50 [1, 7] [µM] | IC50 [6] [µM] | Molecule | also measured
7 | 80.9 | – | RFLRCWSDAPA [RFLRCWSDAPA] | –
8 | – | 72.3 | LERFLRCWSDAPA [PP1-13 (…)] | –
9 | – | 80.9 | RFLRCWSDAPA [PP1-11 (…)] | –
